Experiment: label from the status in PepcDB records
In the case of “MNVVIVRYGEIGTKSRQTRSWFEKILMNNIREALVTEEVPYKEIFSRHGRIIVKTNSPKEAANVLVRVFGIVSISPAMEVEASLEKINRTALLMFRKKAKEVGKERPKFRVTARRITKEFPLDSLEIQAKVGEYILNNENCEVDLKNYDIEIGIEIMQGKAYIYTEKIKGWGGLPIGTEGRMIGILHDELSALAIFLMMKRGVEVIPVYIGKDDKNLEKVRSLWNLLKRYSYGSKGFLVVAESFDRVLKLIRDFGVKGVIKGLRPNDLNSEVSEITEDFKMFPVPVYYPLIALPEEYIKSVKERLGL”, the protein production is reported as “not failed”. With “MNVVRSSAYTGVATLAKLLAALVVVKLVAVYAGPQGVGRLGQFLNLMSVLAVLAGGGISAGIVKYVAQYRDDAPALARLLSAALWYAFCAACAMALLAMAFSGAIAERLLGDASYRPLMCVLAIAQLGIALLNYMLAVINGFMDVRRLAFVQVSGAVLSVALVAWLSGRAQLHGALLALVLSQVLWLLAAVPALRRSSYFQPAMWRMRFDAEMTRQLAAFSVMTLTSTLVPQLVAILVRDHLALQFGWEQVGYWQAVSRVSDAYLLFFTTAINVYYLPKLASLRGAVALGQELRGAYRYVMPAVIVMALGVYVCRDWVTLLLFDAQFAAAAPLYGPQLLGDVVKIAAFVLSYVMLAKAMTRLLVISECIFAASYLALVYLFTAQFGLIGAMYAFAANYVLYLLFNIVVVRRYLRRTA” the protein production was “failed”. In the case of “MNVVVTGGRGSSGRWIVDRLVGPHDVTVLDRRLPDDEGHPAVEYQALDLTDAGGVFDTLTAIDPDAVVHWAAIPVAGNHPGVDLFQNNTLAAHNVLSAAGRVGADVVQGSSDGAYGFFFAEETPVPDELPITEKHARRPEDDYGLSKVVTEEIGKTIARRDGISVASIRPSWIQIPGEYPCRSEDYVDDLAAGAGNYWSYVDVRDVADLVEAALTADVAGHETFNCVGPDNALGRPLVELMRDHYGRVPDDCTVEGDAAAYSTAKATERLGWEPTRSWREAADVDVDVPTV”, the protein production is reported as “failed”. In the case of “MNWPNMPPGDRRWLWIGLTLPLCLLNGWVLLQILDYFQSPLRIFIIANLVAFILGYPVRWLQRYPRLKLPYAVALVLLTTAIILAVIGLLVIPKLVDQIRTVLQLLPHLNALGDRHLESLDNLSNQWEIPTNFRAWGRELSNEFPNQIRSITNQLINLLIWTAGSLVEAGFIFIMTVYLLLRGQTFWDGIFRWLPIDWRHKVRQRLRHSFQNYYIGQATVAALLGVSLIISLSIFQVPLALLFGMFVGFMAFFPFGGGTSIVLISIIASFQSIWLGIKVLAIATVVDQVVENGLAPKLLGRVTGVHPVWILLSLMIGAKVAGLLGILVAIPIASFIRDMLNDFI”, the protein production is reported as “failed”. In the case of “MNWVAPIKDQETLKNFGETLKQVDYKYYIMFELGVGTGLQLQDILAFKNKDVTGKKEIEVTIGTRNMKNVFTVPEELQQIINEYTKGKDPEAYLILGHSSSNKPVSREQAYRVLRSAGHKIGLNSIGAQTMRKTYAWNYYKETGDIYHLQKLFNHASPSITYRFIGEKPNIEVFLKKMTPQENERSRYLLYLNDNGKKKLNKIIDILTGIRDNFDSPANNDAFYGKVDCLLQELEALMENYENTK”, the protein production is reported as “failed”. In the case of “MNYFIVEVSEQEVKREKEKARELRRSQWWKNRIARGICHYCGEIFPPEELTMDHLVPVVRGGKSTRGNVVPACKECNNRKKYLLPVEWEEYLDSLESEPSDGEGLEHHHHHH”, the protein production is reported as “not failed”. For “MNYLVLLIPVLFSFHQIFVRLGSREAETISGIYVSLLASTIIFIPSVANPTLDGMFLLYMSLAGVLHFFVARICFYHAISRIGANLSAPLSATRVFFAALLGIFVGEYLTLRVVVMSLLIFAGIVLISRPKGKADAFGVTLGILTGLFSALSSYFVKFGNAVDYNPLFAIFLGFALSTILMTPLAVRKDLSHTKFYLAAGVTVGIAHLLRYVVLKDVPVTVVEPITSSYPLFTLLLSAIFLREGEIFTLRSITGTLLILGGIYVYYA”, the protein production was “failed”. In the case of “MPADIIIHNGSLITFDEARPQAQALAIQGGMIAAVGSDAEILALAGPETRLIDAGGGTVLPGFIDSHVHLFGGSVELDCLSLYGVKGLDAMRAAIQPYAQANPDDALVFCVMADYDILGTGHTLTRHDLDSILADRPLAMFAPDHHTVWANTAALEATGLLQGGEVDAGSLIVLGEDGLANGELLEPGAYGPILGLTRHGGREMLGLTTGKDPEPPATPDQRARDKDVIARGLAHCAAQGITGLHLMDGNRYQLELLTELEAEGRLLCRCEVPFHMKGTDPVERMTAEAPAMRAAYRGDKVRCNHLKMFIDGVIESGTALMLRPYPGELGANDNTGDEVFTQEHFTACCVEADRLGFQIAVHAIGDAGVRRTIDAFEAARRANGTRDSRHRIEHIEVIHPDDIPRLAELDIVASLQPGHAPRGHVFPPGAVGQYLHPDQIVGAYAWQTIRETGARVVFSTDWPVIPVDVMPSLRAAIAPLDLGPDWPDQSQSLMDTLASYTRDNAWVEFNEDSKGRLKVGMAADIAVLSHDLTALAPDDITQAAAMVTIMDGAVTYQRPG”, the protein production is reported as “failed”. For “MPAERDSSAAWAVCVYCASGPQHPELLGVAAELGEAIAERGWTLVWGGGRVSAMGAVASAARARGGRTVGVIPTVLMRREIADADADELIVSDTLHERKQIMEDRADAFIALPGGIGTLDEVLDAWTTGFLGLHAKPIVLLDPIGHYEGLWLWLSGLLDSGYITQAAMDRVVLVDKVGAALEACAPG”, the protein production was “failed”. For “MPAHSLSLYQYYRPPLDWQAQLAFYRLRAVAGMEWFSNTDNDCLEKIAQDKQALEYGRTLQIDDIRAVVHIIHEAHLHRFKLTLTFTPDSPIAGLQKLITQVRRILDLDADMQQIEHNLQRLTDLKLIPKSGLRIPGAGSLEHHHHHH”, the protein production was “failed”. For “MPASPEESAMTPWTPIARLEEIPRQGARVVATPEGAIAVFRTLDDRVFALLDRCPHKGGPLSQGIVHGARVACPLHNWVIELDSGQAVAPDEGCVRRFETRLEDGMVAIALPDSLVGTLEHHHHHH”, the protein production was “not failed”. In the case of “MPCTAKVLELRPSVDALLRQHVRTLQGTGRGQCSKSFVPAIRQELVMIALFQGLGLLLQDNALHRLPFDEQVAHWRDKTDAQLDEELSLLKVAKKQWVIASIIGWQAISLILLGVITHQLWQNDYHLTFSRVVIIFTSWASILFVMWYIADLFDHSAGFERWLRAFNSRARVTPDADSVECVADALDMTRRYPEVLRYKQEVTSKRELRHEDIVNMREMGRLRRYTELLRDLDRFDGAPRLVANA”, the protein production is reported as “failed”. With “MPDGDFITLDRVEKVFDVRRKTGFLRSERRRVRAVDSLSFTVARGEMVGYIGPNGAGKSTTIKMLTGILTPSGGRLRVAGIDPSRERTRLAARIGVVFGQRTTLWWDLPLIDSYRLMHRMYRIPDGRYRENLDRCVELLELGDLLDVPVRQLSLGQRMRGDIAAALLHDPEVLYLDEPTIGLDVISKARVREFLRELNAERGTTVLLTTHDLQDIEQLCGRVMVIDHGRLMYDGPLAGLHEVGDSERTLVVDLARELPPIEAAPARVVKVEGPRQWLAFPASESAAPLVARIAAAYPLVDLSVREPDIEAVIAKMLQSMGDTPQPPPEQAEHVVSLEHHHHHH” the protein production was “not failed”. In the case of “MPDKFKRVHVIVMDSVGIGEAPDAAKFGDFDVDTFGHIAKHVGGLKMPEMGKLGLSNIREIEGIEKAEKPLAYYTKMQEASNGKDTMTGHWEIMG”, the protein production is reported as “failed”. For “MPDNFLIVPSADVQGGRLTTLSNAISTTDLNLTVTGLSNDTELVVYQLSTGVIGTPQAAAQPRETHVFALMGQSNMIGRAAFDGGAKWPDGTLQIGRGGDEDGAIIPARNPADGPATSRPLAHTGARLGNMGLDIQFAIDYLSDKPDVTLLFIPCAQGATGFSNGAWNPGDWLYNRETARINAAMNANPEFLFQGFLWHQGETDTGIPGTYGGLLDNLIAGLRRDVTAATPTTPFILGGLAAGNAGRDAITGIIAATPGRVPYTAFAPTADLSLTDANHFDAASFRTLGARYAAALASAAANQPGAPGIPTGLSAVAGDTEVTLSWSAPANTGGTALSDYIIERDSGSGFAALADGTGTTTGYTDSGLSNGTTYAYRVRAVNGTGTGAATPPQSATPAAPATGPVAEAGAQAHWLFGADNPTYADLVSGRIATGPAHALEAAYMTSPAGIRQGRDTGIAEADAQTMCFVFQLAGSANSMIGGTLTTSGSNGVSPYTSATTGIYANMRGGWGNPAISSASPYRTQFVFAAVSKNVATGNYVLFAGNGAGHDVLTGTSAQTTSPRTIGIGNLHFDRANFSGQISIAEAILFDSAKTEIELTEIYDRSRTRLAARGLTVV”, the protein production was “failed”. In the case of “MPDPIFSVSDARRSGTRLIGFGIGAIVVILATAATFLLLTLPDANAFNARVERVFIENDLTTQAEIRLLEILAQSGTAFADTLSSYRMVIFVLLVFASAMMIAALAFLVMLVLLNRRMAQIERTGIQVTSLLISREENTVYLNNMEFQLTPAAIETLAVLAEARMDDDVLSGAQIEAVISGRDASDCEEAAGATRIKRLRDTLGNQMISALLVKNIAKRGYMLAIEKSVIQMV”, the protein production is reported as “failed”. For “MPDPKPEVLDFLLSRRSRPAKTLALPVPDRAALAPILTGALRTPDHGKLEPWRLIVLEAGAMPRLAALADARAEALALDPDKSAKGRAQFAQSHLAVVVVARPEPSDKVPEIEQILSAGAVCLSLLNAAQAAGWGANWLTGWPAYDRGFLREGLGLAETEFVAGIVHIGSETVAPPERPRPDVASLTTWVSE”, the protein production was “failed”. With “MPDTKIVDANNKFGFKLFSEIAKQDGNAKNISVSPTSVAIALAMTYNGASGSTQKAMAKTLELQGISLPELNSGYASLNKLLQNPGENVQLTIANSLWVNQDVSLRPDFVQTTRDFYQAKVTNLDFQNVTAVNTINSWVQENTKGKIDKIVDNIEPNQALFLINAIYFNGKWSNAFDKSQTTPQTFYTASGQQKQHPMMSQTGEYRYYETPQFQSVSLPYGQDGKVSLYIFLPTKNSNLKAFSQNLNAENWEKWMPQFRNREGSIRLPRFQTDYDITLNDALKSLGMAEAFSNKANFSGIGDNLTISQVRHKTVIEVNEEGTEASAATSVGMVATSLREPQQPFKMIVDRPFFYAIRDNQSKNILFMGAVVEPN” the protein production was “failed”. With “MPDVDKIIQFKREILDNLSNERLSKESFGLSMDVKLPEPGESIVPWIGEDLALDETDDELDLNFMLDALENEDKLSYSDIFNDNLPLSGSNLRVDVDSELSTLNNDFDVSSSDSFENNIDKVLDDNSIDLEIASKLDFDNLINSPELSSEELINNQGNNNFFEANNDSSVLGDSNFLQSNEFNIDDAVNGKNQTDEQSEMFVGDSLNLSADEDDFENVIDDFKFLEYDQNANFKRFEFKVNYPLFLKHLNSYPRNLRIAIAEALTKENVSRFKLEALIDLVEKNKKRLKFIAKFVGDIVGRSIKLPVIYFKAEEFSKLQQKLSYRVSRALLPLIKIASFFVVLVLVSLYLIVDVIFFYVASESKYKEGIESIYANKRDLAKSIFRDAYYIRPDDKWFINYAKAFEDVRDFDSAEEKYEELFTIEPFSKNSTNRRRKKFNKEGYISYASMKIGLGEHSEANSILDEVISYDLYDYDALVLKGDNYFKWAKTNSNYYKDSINSYTVVLSKYGQKKEILFKLFNAYIEANLDTESDNVNNFIKSNEILDIDEVVYTKYAKKLVDKYISFVTYNQRANNLAINLNYLNGQTNLLNKEFSDFKRNDGRTIFKLDNNVNMNSEIEYILRKILNKNPNYDKALFESGRYSYYIGDFKKAEVYLLKALNSFRHKNSIEDAGDKILAYKILADIYEKTRDSLRASNIIGLALSDYSFYKKHNLIKGSKEISSIYEKQGDILRSLNDFKSAISSYKLAINEGVDYPDVYYKVGLLSYRENNYDDALKYLFKVESMAGFSSSNEVLNTIALTLYKIGDFLASRSYYLRVMQNLELEKANVLNFNPKENDYHKTLLLKEIETYNNLGVVEVMASFSSIRDTKLFNSGVSNLSESAKIFDILNRDEDMVKSVKKDLASLNLRNIFKNSFSKSNVLFYENLSEKL” the protein production was “failed”.

— a protein production outcome set (Wang et al. 2014)
